Measured values as given in patent publication US20240261333A1 (published 2024).

Columns and labels:
Assay in all cases: co-IP, anti-FLAG, lysate of cells with N-FLAG B3GNT2; mass spectrometry
[1] = biological target: T1, RBM39 (human, UniProt Q14498-3 2-508, limits assumed)
T1 construct: also called NP_001310351.1 (+3)
T1 sequence (looked up): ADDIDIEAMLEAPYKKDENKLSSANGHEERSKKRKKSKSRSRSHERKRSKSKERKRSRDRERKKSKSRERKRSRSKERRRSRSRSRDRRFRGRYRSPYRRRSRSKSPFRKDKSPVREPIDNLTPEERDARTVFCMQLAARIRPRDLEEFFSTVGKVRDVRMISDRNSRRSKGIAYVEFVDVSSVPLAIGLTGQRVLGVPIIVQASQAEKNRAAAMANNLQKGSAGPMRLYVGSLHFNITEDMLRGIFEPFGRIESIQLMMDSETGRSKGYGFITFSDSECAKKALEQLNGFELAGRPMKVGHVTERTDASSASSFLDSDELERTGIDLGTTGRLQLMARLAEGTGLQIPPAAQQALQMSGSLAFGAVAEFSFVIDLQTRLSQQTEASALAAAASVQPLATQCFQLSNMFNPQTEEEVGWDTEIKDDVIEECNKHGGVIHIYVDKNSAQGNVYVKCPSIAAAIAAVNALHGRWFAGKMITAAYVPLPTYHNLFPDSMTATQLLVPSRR

[2] = biological target: T2, SPTAN1 (human, UniProt Q13813-2 1-2477, limits assumed)
T2 construct: also called NP_001123910.1 (+10)

[3] = biological target: T3, KRT4 (human, UniProt P19013 1-520)
T3 construct: also called NP_002263.3
T3 sequence (P19013 whole entry): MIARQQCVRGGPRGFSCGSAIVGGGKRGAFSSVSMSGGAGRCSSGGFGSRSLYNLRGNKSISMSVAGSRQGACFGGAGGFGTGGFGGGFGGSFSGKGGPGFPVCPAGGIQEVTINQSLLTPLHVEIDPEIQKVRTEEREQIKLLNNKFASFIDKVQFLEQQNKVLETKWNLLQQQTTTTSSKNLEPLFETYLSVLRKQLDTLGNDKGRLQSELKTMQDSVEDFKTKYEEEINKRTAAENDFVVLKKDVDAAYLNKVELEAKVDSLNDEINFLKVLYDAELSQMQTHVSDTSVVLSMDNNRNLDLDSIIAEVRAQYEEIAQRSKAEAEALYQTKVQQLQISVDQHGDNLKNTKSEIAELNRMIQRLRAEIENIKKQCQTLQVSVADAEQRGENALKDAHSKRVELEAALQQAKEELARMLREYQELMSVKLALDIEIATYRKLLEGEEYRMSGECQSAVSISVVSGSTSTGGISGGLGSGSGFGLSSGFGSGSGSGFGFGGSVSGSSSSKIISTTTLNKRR

B1: N-terminal FLAG tagged B3GNT2 (enzyme, human, UniProt Q9NY97 1-397, looked up)
chain: MSVGRRRIKLLGILMMANVFIYFIMEVSKSSSQEKNGKGEVIIPKEKFWKISTPPEAYWNREQEKLNRQYNPILSMLTNQTGEAGRLSNISHLNYCEPDLRVTSVVTGFNNLPDRFKDFLLYLRCRNYSLLIDQPDKCAKKPFLLLAIKSLTPHFARRQAIRESWGQESNAGNQTVVRVFLLGQTPPEDNHPDLSDMLKFESEKHQDILMWNYRDTFFNLSLKEVLFLRWVSTSCPDTEFVFKGDDDVFVNTHHILNYLNSLSKTKAKDLFIGDVIHNAGPHRDKKLKYYIPEVVYSGLYPPYAGGGGFLYSGHLALRLYHITDQVHLYPIDDVYTGMCLQKLGLVPEKHKGFRTFDIEEKNKNNICSYVDLMLVHSRKPQEMIDIWSQLQSAHLKC
notes: Overexpressed in cells and pulled down from the lysate with mouse anti-FLAG antibody; also called N-FLAG B3GNT2; N-term FLAG; not shown: N-terminal FLAG tag
- co-IP mass spectrometry count [1]: 4
- co-IP mass spectrometry count [2]: 0
- co-IP mass spectrometry count [3]: 22
